Measurements published in patent US20210277441A1, “METHOD OF SELECTING A POLYPEPTIDE OF INTEREST” (IMPERIAL COLLEGE INNOVATIONS LIMITED, priority 2018, published 2021).

Assays:
[1] = system: LS1 strain (ΔadhE ΔldhA double mutant) cells; assay: Metabolic complementation (anaerobic growth recovery) of LS1/AL strain; assay type: cell-based, Escherichia coli
Procedure: (§1) The LS1 mutant strain and the parental BW25113 strain were transformed with the desired plasmid and overnight pre-cultures were grown aerobically in 15 mL Falcon tubes with M9 media (0.4% glucose). These pre-cultures were used to inoculate 10 mL Hungate tubes with M9 medium (0.4% glucose) supplemented with 100 μg/mL ampicillin, 1 mM IPTG and with or without the specific substrate of the dehydrogenase under anaerobic conditions at 37° C. Metabolic complementation was assessed by measuring the optical density at 600 nm every two hours during daytime.

AL cells = assay: 1H NMR analysis of fermentation broth of anaerobic cultures; assay type: cell-based, Escherichia coli; design: Substrate concentration: unit not given here
LS5 strain = assay: Metabolic complementation (anaerobic growth) of quadruple mutant; assay type: cell-based, Escherichia coli
Procedure: as §1
Since in the triple mutants the non-deleted transhydrogenase could still be supporting anaerobic growth under anaerobic fermentation conditions when complemented with an NADPH-dependent oxidoreductase by generating oxidized NAD, the inventors generated a quadruple mutant where adhE, ldhA, sthA and pntA genes were deleted (LS5 strain, FIG. 11).

[2] = system: triple mutants (adhE, ldhA and one transhydrogenase gene knocked out); assay: Metabolic complementation of triple mutants; assay type: cell-based, E. coli; conditions: any of the triple mutants
From the text: As LS1 (ΔadhE-ΔldhA double mutant) was able to grow when transformed with an NADPH-dependent oxidoreductase (wild type CBADH), the inventors generated two triple mutants where, in addition to adhE and ldhA, one transhydrogenase gene was deleted in each. Transhydrogenases catalyse the direct transfer of electrons from NADH to NADP+ and from NADPH to NAD+, in the following reaction: NADH+NADP^+=NAD^++NADPH. Without wishing to be bound to any particularly theory, the inventors hypothesized the activity of these transhydrogenases is what makes the system able to restore anaerobic growth when transformed with enzymes that generate NADP+. Two triple mutants, where one transhydrogenase gene was knocked out in addition to adhE and ldhA, were generated, since there are 2 transhydrogenase genes in E. coli: • sthA (soluble transhydrogenase) • pntA (transmembrane transhydrogenase).

LS1 strain cells = assay: GC analysis of fermentation broth; assay type: cell-based, Escherichia coli; conditions: anaerobic, media supplemented with acetone
[3] = Enzymatic activity assays with purified enzyme, reduction of acetone; assay type: biochemical
[4] = Enzymatic activity assays with purified enzyme, oxidation of isopropanol; assay type: biochemical
[5] = LS1, medium supplemented with acetoin
[6] = exogenous substrate acetoin, product 2,3-butanediol
[7] = exogenous substrate acetone, product isopropanol
[8] = exogenous substrate 2-methyl-1-pyrroline
[9] = exogenous substrate 2-nitrobenzoic acid
[10] = exogenous substrate 4-nitrobenzylic alcohol

B1: pLS2: pUC19 with sADH NADH-dependent from Bacillus subtilis (bdhA), acetoin reductase (protein, UniProt O34788 1-346, looked up)
(R,R)-butanediol dehydrogenase: MKAARWHNQKDIRIEHIEEPKTEPGKVKIKVKWCGICGSDLHEYLGGPIFIPVDKPHPLTNETAPVTMGHEFSGEVVEVGEGVENYKVGDRVVVEPIFATHGHQGAYNLDEQMGFLGLAGGGGGFSEYVSVDEELLFKLPDELSYEQGALVEPSAVALYAVRSSKLKAGDKAAVFGCGPIGLLVIEALKAAGATDIYAVELSPERQQKAEELGAIIVDPSKTDDVVAEIAERTGGGVDVAFEVTGVPVVLRQAIQSTTIAGETVIVSIWEKGAEIHPNDIVIKERTVKGIIGYRDIFPAVLSLMKEGYFSADKLVTKKIVLDDLIEEGFGALIKEKSQVKILVRPN
modifications: expressed from pUC19 plasmid
notes: pUC19 with sADH NADH-dependent from Bacillus subtilis (bdhA), acetoin reductase
- anaerobic growth recovery [1, 5]: growth recovery was achieved
- Acetate concentration (AL cells; exogenous substrate acetoin): 6.7
- Ethanol concentration (AL cells; exogenous substrate acetoin): 0
- Formate concentration (AL cells; exogenous substrate acetoin): 3.7
- Lactate concentration (AL cells; exogenous substrate acetoin): 0
- Substrate concentration (AL cells; exogenous substrate acetoin): 0
- Succinate concentration (AL cells; exogenous substrate acetoin): 0.5
- Product concentration (AL cells; [6]): 8.4

B2: pLS3: pUC19 with sADH NADH-dependent from Klebsiella pneumoniae (budC), acetoin reductase (protein, UniProt Q48436 1-256, looked up)
Diacetyl reductase …: MKKVALVTGAGQGIGKAIALRLVKDGFAVAIADYNDATAKAVASEINQAGGRAMAVKVDVSDRDQVFAAVEQARKTLGGFDVIVNNAGVAPSTPIESITPEIVDKVYNINVKGVIWGIQAAVEAFKKEGHGGKIINACSQAGHVGNPELAVYSSSKFAVRGLTQTAARDLAPLGITVNGYCPGIVKTPMWAEIDRQVSEAAGKPLGYGTAEFAKRITLGRLSEPEDVAACVSYLASPDSDYMTGQSLLIDGGMVFN
modifications: expressed from pUC19 plasmid
notes: pUC19 with sADH NADH-dependent from Klebsiella pneumoniae (budC), acetoin reductase
- anaerobic growth recovery [1, 5]: growth recovery was achieved
- Acetate concentration (AL cells; exogenous substrate acetoin): 7.9
- Ethanol concentration (AL cells; exogenous substrate acetoin): 0
- Formate concentration (AL cells; exogenous substrate acetoin): 5
- Lactate concentration (AL cells; exogenous substrate acetoin): 0
- Substrate concentration (AL cells; exogenous substrate acetoin): 0.2
- Succinate concentration (AL cells; exogenous substrate acetoin): 0.7
- Product concentration (AL cells; [6]): 8.3

B3: Clostridium beijerinckii alcohol dehydrogenase (protein, listed as Clostridium beijerinckii)
chain: MKGFAMLGINKLGWIEKERPVAGSYDAIVRPLAVSPCTSDIHTVFEGALGDRKNMILGHEAVGEVVEVGSEVKDFKPGDRVIVPCTTPDWRSLEVQAGFQQHSNGMLAGWKFSNFKDGVFGEYFHVNDADMNLAILPKDMPLENAVMITDMMTTGFHGAELADIQMGSSVVVIGIGAVGLMGIAGAKLRGAGRIIGVGSRPICVEAAKFYGATDILNYKNGHIVDQVMKLTNGKGVDRVIMAGGGSETLSQAVSMVKPGGIISNINYHGSGDALLIPRVEWGCGMAHKTIKGGLCPGGRLRAEMLRDMVVYNRVDLSKLVTHVYHGFDHIEEALLLMKDKPKDLIKAVVIL
- time after which growth recovery was observed ([1]; LS1 cells cultured anaerobically, media supplemented with acetone): 55 h
- anaerobic growth (LS5 strain; media supplemented with acetone or not): anaerobic growth is not restored
- Acetate concentration (AL cells; exogenous substrate acetone): 8.1
- Ethanol concentration (AL cells; exogenous substrate acetone): 0
- Formate concentration (AL cells; exogenous substrate acetone): 5.8
- Lactate concentration (AL cells; exogenous substrate acetone): 0
- Substrate concentration (AL cells; exogenous substrate acetone): 0.1
- Succinate concentration (AL cells; exogenous substrate acetone): 1.1
- Product concentration (AL cells; [7]): 10.8
- anaerobic growth [2]: still able to grow anaerobically

B4: CBADH-s: CBADH variant with substitutions G198D, S199Y and Y218P, uses NADH instead of NADPH (protein)
chain: MKGFAMLGINKLGWIEKERPVAGSYDAIVRPLAVSPCTSDIHTVFEGALGDRKNMILGHEAVGEVVEVGSEVKDFKPGDRVIVPCTTPDWRSLEVQAGFQQHSNGMLAGWKFSNFKDGVFGEYFHVNDADMNLAILPKDMPLENAVMITDMMTTGFHGAELADIQMGSSVVVIGIGAVGLMGIAGAKLRGAGRIIGVDYRPICVEAAKFYGATDILNPKNGHIVDQVMKLTNGKGVDRVIMAGGGSETLSQAVSMVKPGGIISNINYHGSGDALLIPRVEWGCGMAHKTIKGGLCPGGRLRAEMLRDMVVYNRVDLSKLVTHVYHGFDHIEEALLLMKDKPKDLIKAVVIL
modifications: amino acid variant of CBADH
notes: CBADH variant with substitutions G198D, S199Y and Y218P, uses NADH instead of NADPH
- isopropanol in fermentation broth compared with pLS6 (LS1 strain cells): much higher levels
- increase in activity compared to the wild type ([3]; reduction of acetone to isopropanol, NADH as the cofactor, purified enzyme): 4.6 fold
- activity with NADP(H) as the cofactor ([3]; reduction reaction): no significant activity
- anaerobic growth recovery ([1]; LS1, media supplemented with acetone): allowed growth recovery
- increase in activity compared to the wild type ([4]; oxidation of isopropanol to acetone, NAD+ as the cofactor, purified enzyme): io
- activity with NADP(H) as the cofactor ([4]; oxidation reaction): no significant activity
- anaerobic growth (LS5 strain; media supplemented with acetone): anaerobic growth is restored
- Acetate concentration (AL cells; exogenous substrate acetone): 13
- Ethanol concentration (AL cells; exogenous substrate acetone): 0
- Formate concentration (AL cells; exogenous substrate acetone): 9.9
- Lactate concentration (AL cells; exogenous substrate acetone): 0
- Substrate concentration (AL cells; exogenous substrate acetone): 0.5
- Succinate concentration (AL cells; exogenous substrate acetone): 1.1
- Product concentration (AL cells; [7]): 12.7

B5: Myxococcus stipitatus imine reductase (protein)
chain: MKPTLTVIGAGRMGSALIKAFLQSGYTTTVWNRTKAKSEPLAKLGAHLADTVRDAVKRSDIIVVNVLDYDTSDQLLRQDEVTRELRGKLLVQLTSGSPALAREQETWARQHGIDYLDGAIMATPDFIGQAECALLYSGSAALFEKHRAVLNVLGGATSHVGEDVGHASALDSALLFQMWGTLFGTLQALAISRAEGIPLEKTTAFIKLTEPVTQGAVADVLTRVQQNRLTADAQTLASLEAHNVAFQHLLALCEERNIHRGVADAMYSVIREAVKAGHGKDDFAILTRFLK
modifications: Myxococcus stipitatus imine reductase
- Acetate concentration (AL cells; [8]): 4.3
- Ethanol concentration (AL cells; [8]): 0
- Formate concentration (AL cells; [8]): 2.1
- Lactate concentration (AL cells; [8]): 0
- Substrate concentration (AL cells; [8]): 5.5
- Succinate concentration (AL cells; [8]): 1.2
- Product concentration (AL cells; exogenous substrate 2-methyl-1-pyrroline, product 2-methylpyrrolidine): 6.6

B6: nsfB nitroreductase from Enterobacter cloacae (protein, listed as Enterobacter cloacae)
chain: MDIISVALKRHSTKAFDASKKLTAEEAEKIKTLLQYSPSSTNSQPWHFIVASTEEGKARVAKSAAGTYVFNERKMLDASHVVVFCAKTAMDDAWLERVVDQEEADGRFNTPEAKAANHKGRTYFADMHRVDLKDDDQWMAKQVYLNVGNFLLGVGAMGLDAVPIEGFDAAILDEEFGLKEKGFTSLVVVPVGHHSVEDFNATLPKSRLPLSTIVTEC
- Acetate concentration (AL cells; [9]): 0.7
- Ethanol concentration (AL cells; [9]): 0
- Formate concentration (AL cells; [9]): 0.4
- Lactate concentration (AL cells; [9]): 0
- Substrate concentration (AL cells; [9]): 14.1
- Succinate concentration (AL cells; [9]): 0
- Acetate concentration (AL cells; [10]): 0.8
- Ethanol concentration (AL cells; [10]): 0
- Formate concentration (AL cells; [10]): 0.4
- Lactate concentration (AL cells; [10]): 0
- Substrate concentration (AL cells; [10]): 8.28
- Succinate concentration (AL cells; [10]): 0

B7: EntNFSB-s1: nitroreductase variant selected for 2-NBA (protein)
chain: MDIISVALKRHSTKAFDASKKLTAEEAEKIKTLLQYSPSAINSQPWHFIVASTEEGKARVAKSAAGTYVFNERKMLDASHVVVFCAKTAMDDAWLERVVDQEEADGRFNTPEAKAANHKGRTYAADMHRVDLKDDDQWMAKQVYLNVGNFLLGVGAMGLDAVPIEGFDAAILDEEFGLKEKGFTSLVVVPVGHHSVEDFNATLPKSRLPLSTIVTEC
modifications: amino acid variant of Enterobacter cloacae nitroreductase
notes: nitroreductase variant selected for 2-NBA
- Acetate concentration (AL cells; [9]): 4.4
- Ethanol concentration (AL cells; [9]): 0
- Formate concentration (AL cells; [9]): 2.9
- Lactate concentration (AL cells; [9]): 0
- Substrate concentration (AL cells; [9]): 12.4
- Succinate concentration (AL cells; [9]): 0.3

B8: EntNFSB-s2: nitroreductase variant identified for cells grown with 4-nitrobenzyl alcohol (protein)
chain: MDIISVALKRHSTKAFDASKKLTAEEAEKIKTLLQYSPSSLNSQPWHFIVASTEEGKARVAKSAAGTLVFNERKMLDASHVVVFCAKTAMDDAWLERVVDQEEADGRFNTPEAKAANHKGRTYLADMHRVDLKDDDQWMAKQVYLNVGNFLLGVGAMGLDAVPIEGFDAAILDEEFGLKEKGFTSLVVVPVGHHSVEDFNATLPKSRLPLSTIVTEC
modifications: no acid variant of Enterobacter cloacae nitroreductase
notes: nitroreductase variant identified for cells grown with 4-nitrobenzyl alcohol
- Acetate concentration (AL cells; [10]): 13.2
- Ethanol concentration (AL cells; [10]): 0
- Formate concentration (AL cells; [10]): 7.9
- Lactate concentration (AL cells; [10]): 0
- Substrate concentration (AL cells; [10]): 0
- Succinate concentration (AL cells; [10]): 1
